Results reported in patent US20120207760A1.

B1: TCN-523 (5248_A17) (antibody, V domains shown)
VH: QVQLVQSGAEVKKPGSSVKVSCKASGGSFSNYAFSWVRQAPGQGLEWMGGTIPLLGTTNYAQKFQGRVTISADQFTSTAYMELGSLRSEDTAVYYCTRRKMTTAFDSWGQGTLVTVSS
VL: QPVLTQPPSASASLGASVTLTCTLSSAYSNYKVDWYQQRPGKGPRFVMRVGTGGIVGSKGDGIPDRFSVLGSGLNRYLTIKNIQEEDESDYHCGADHGSGSNFVSPYVFGGGTKLTVL
B2: TCN-504 (3251_K17) (antibody, V domains shown)
VH: QVQLQESGPGLVKPSETLSLTCAVSGVSISNIDFYWGWIRQPPGKGLEWIGNIYYTGITFYNPSLSSRVAISIDTSKNQFSLTLTSVTAADTAMYYCARHYGDSEAINDAFDIWGQGTMLTVSS
VL: EIVMTQSPATLSVSPGERATLSCRASQSVGNSLAWYQQRPGQAPRLLIYGASTRATGIPPRFSGSGSGTEFTLTISSLQTEDFAVYYCQQYINWRPLSFGGGTKVEIK

Legend:
Conditions in all cases: remark: other sources report otherwise
[1] = biological target: T1, recombinant homotrimeric HA, A/Indonesia/5/05 H5N1 (Influenza A virus A/Indonesia/5/05 (H5N1)); assay: trimeric HA microarray, transfection set 5
[2] = biological target: T2, recombinant homotrimeric HA, A/Japan/305/57 H2N2 (Influenza A virus A/Japan/305/57 (H2N2)); assay: trimeric HA microarray, transfection set 5
[3] = biological target: T3, recombinant homotrimeric HA, A/Solomon Islands/3/06 H1N1 (Influenza A virus A/Solomon Islands/3/06 (H1N1)); assay: trimeric HA microarray, transfection set 5
[4] = biological target: T4, recombinant homotrimeric HA, A/swine/Ontario/01911-2/99 H4N6 (Influenza A virus A/swine/Ontario/01911-2/99 (H4N6)); assay: trimeric HA microarray, transfection set 5
[5] = biological target: T5, recombinant homotrimeric HA, A/South Carolina/1/18 H1N1 (Influenza A virus A/South Carolina/1/18 (H1N1)); assay: trimeric HA microarray, transfection set 5
[6] = biological target: T6, recombinant homotrimeric HA, A/Vietnam/1203/04 H5N1 (Influenza A virus A/Vietnam/1203/04 (H5N1)); assay: trimeric HA microarray, transfection set 5
[7] = biological target: T7, recombinant homotrimeric HA, A/California/4/09 H1N1 (Influenza A virus A/California/4/09 (H1N1)); assay: trimeric HA microarray, transfection set 5
[8] = biological target: recombinant homotrimeric HA, A/Hong Kong/1073/99 H9N2 (Influenza A virus A/Hong Kong/1073/99 (H9N2)); assay: trimeric HA microarray, transfection set 2
[9] = biological target: recombinant homotrimeric HA, A/northern shoveler/California/HKWF115/07 (Influenza A virus A/northern shoveler/California/HKWF115/2007 (H6N1)); assay: trimeric HA microarray, transfection set 2
[10] = biological target: T1, recombinant homotrimeric HA, …; assay: trimeric HA microarray, transfection set 4
[11] = biological target: T2, recombinant homotrimeric HA, …; assay: trimeric HA microarray, transfection set 4
[12] = biological target: T3, recombinant homotrimeric HA, A/Solomon …; assay: trimeric HA microarray, transfection set 4
[13] = biological target: T4, recombinant homotrimeric HA, …; assay: trimeric HA microarray, transfection set 4
[14] = biological target: T5, recombinant homotrimeric HA, A/South …; assay: trimeric HA microarray, transfection set 4
[15] = biological target: T6, recombinant homotrimeric HA, …; assay: trimeric HA microarray, transfection set 4
[16] = biological target: T7, recombinant homotrimeric HA, …; assay: trimeric HA microarray, transfection set 4
[17] = biological target: recombinant homotrimeric HA, A/Hong Kong/2108/03 H9N2 (Influenza A virus A/Hong Kong/2108/03 (H9N2)); assay: trimeric HA microarray, transfection set 1
[18] = biological target: T2, recombinant homotrimeric HA, …; assay: trimeric HA microarray, transfection set 1
[19] = biological target: T3, recombinant homotrimeric HA, A/Solomon …; assay: trimeric HA microarray, transfection set 1
[20] = biological target: T4, recombinant homotrimeric HA, …; assay: trimeric HA microarray, transfection set 1
[21] = biological target: T7, recombinant homotrimeric HA, …; assay: trimeric HA microarray, transfection set 1
[22] = biological target: T8, recombinant homotrimeric HA, A/Netherlands/219/03 H7N7 (Influenza A virus A/Netherlands/219/03 (H7N7)); assay: trimeric HA microarray, transfection set 3
[23] = biological target: T9, recombinant homotrimeric HA, A/duck/Yangzhou/02/05 H8N4 (Influenza A virus A/duck/Yangzhou/02/2005 (H8N4)); assay: trimeric HA microarray, transfection set 3
[24] = biological target: T10, recombinant homotrimeric HA, A/Wisconsin/67/05 H3N2 (Influenza A virus A/Wisconsin/67/05 (H3N2)); assay: trimeric HA microarray, transfection set 3
[25] = biological target: T8, recombinant homotrimeric HA, …; assay: trimeric HA microarray, transfection set 2
[26] = biological target: T9, recombinant homotrimeric HA, …; assay: trimeric HA microarray, transfection set 2
[27] = biological target: T10, recombinant homotrimeric HA, …; assay: trimeric HA microarray, transfection set 2
[28] = biological target: recombinant homotrimeric HA, A/Anhui/1/05 H5N1 (Influenza A virus A/Anhui/1/05 (H5N1)); assay: trimeric HA microarray, transfection set 2
[29] = biological target: recombinant soluble homotrimeric HA of A/Hong Kong/2108/03 (H9N2) (Influenza A virus A/Hong Kong/2108/03 (H9N2)); assay: microarray, control antibody, trimeric HA

Row | Binder | Trimeric HA Binding RLU [1] [RLU] | Trimeric HA Binding RLU [2] [RLU] | Trimeric HA Binding RLU [3] [RLU] | Trimeric HA Binding RLU [4] [RLU] | Trimeric HA Binding RLU [5] [RLU] | Trimeric HA Binding RLU [6] [RLU] | Trimeric HA Binding RLU [7] [RLU] | Trimeric HA Binding RLU [10] [RLU] | Trimeric HA Binding RLU [11] [RLU] | Trimeric HA Binding RLU [12] [RLU] | Trimeric HA Binding RLU [13] [RLU] | Trimeric HA Binding RLU [14] [RLU] | Trimeric HA Binding RLU [15] [RLU] | Trimeric HA Binding RLU [16] [RLU] | Trimeric HA Binding RLU [17] [RLU] | Trimeric HA Binding RLU [18] [RLU] | Trimeric HA Binding RLU [19] [RLU] | Trimeric HA Binding RLU [20] [RLU] | Trimeric HA Binding RLU [21] [RLU] | further results
1 | B1 | 55000 | 22000 | 37600 | 1700 | 52000 | 27800 | 34400 | 24500 | 3840 | 371 | 850 | 23000 | 30900 | 28800 | 41 | 191 | 6780 | 49 | 17700 | Trimeric HA Binding RLU [8]: 31300 RLU; Trimeric HA Binding RLU [9]: 21200 RLU
2 | B2 | 18500 | 23300 | 30100 | 54800 | 32000 | 21500 | 17600 | 18200 | 19600 | 14600 | 21800 | 21700 | 25700 | 549 | 78 | 15100 | 29800 | 26500 | 18300 | Trimeric HA Binding RLU [22]: 19600 RLU; Trimeric HA Binding RLU [23]: 19600 RLU; Trimeric HA Binding RLU [24]: 21400 RLU; Trimeric HA Binding RLU [25]: 19300 RLU; Trimeric HA Binding RLU [26]: 17800 RLU; Trimeric HA Binding RLU [27]: 21600 RLU; Trimeric HA Binding RLU [28]: 31000 RLU; Trimeric HA Binding: RLU [29]: 454 RLU
